Measurements as given in the nanobody polyreactivity screen of Harvey et al. (2022).

assay: yeast display, Sf9 membrane polyspecificity reagent, FACS + sequencing; frameworks hold sequencing errors
In short: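 A nanobody's polyreactivity label depends on the gate it was sorted from. Yeast display cells were stained with 10% biotinylated, detergent-solubilized Sf9 membrane reagent for 1 hour at 4 °C, enriched on streptavidin microbeads and sorted by FACS. The low and high (top ~1%) gates were set on anti-HA fluorescence for expression and streptavidin fluorescence for reagent binding.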

Row | Sequence | polyreactivity (PSR sort gate)
1 | QVQHVESGGGLGQAGGSLRLSCAASGRTFDGNVKGWYIQAPGKERELVAAMTASGARTYYADSVKRRFTISRDNAKNTVYLQMNSLKPEDTAVYYCAAVCRRVSAWYYYWGQGTQVTVSS | high polyreactivity
2 | QVQHVESGGGLLQAGGSLRLSCAASGMGWYRQAPGKERELVAVIRWSSGSTYYADSVKGRFTISRDNAKNTVYLQMNSLKPDDTAVYYCNARDQYYGDPSSQPDTRSRSDYWGQGTQVTVSS | low polyreactivity
3 | QVQHVESGGGLVLAGGSLRLSCAASGRTFAYNAMGWYRQAPGKERELVAAISRSGGSTYYADSVKGRFTISRDNPKNTVYLQMYSLKPEDTAVYYSNKVTHSYVYFAAGDYWGQGTQVTVSS | high polyreactivity
4 | QVQHVESGGGLVQAGASLRLSCAASGTTFIGYERGRSRQAPGKVRELVAAISYSDGTYYADSVKGRFTISRENAKNTVYLQMNSLKPEDTAVYYCAADSLFYRYDYWGQGTQVTVSS | low polyreactivity
5 | QVQHVESGGGLVQAGCSLRLSCAASGSIFVIYAMGWYRQAPGKERELVAAIRSTGSSNYADSVKGRFTISRDNAKNTVYLQMNSLKPEDTAVYYCAAYRRRTYAVNIEGGYWGQGTQVTVSS | high polyreactivity
6 | QVQHVESGGGLVQAGGGLRISCAASGSIFHVNAMGWSRLAPGKERELVAGISDGGSTYYADSVKGRFTFSRDTAKHTVYLQLNSLKPEDTAVYYSGAECEQWYSYVLSYDWEYDYWGQGTQVTVSS | low polyreactivity
7 | QVQHVESGGGLVQAGGRLRLSCAASGSIFYSNAIGWYRQAPGKEWELVATITWSGGRTYYADSVKGRFTISRDNAKNTVYLQMNSLKPEDTAVYYCAAVSIYWGQGTQVTVSS | low polyreactivity
8 | QVQHVESGGGLVQAGGSHRLSCAASGRIFTQNSMGWYRQAPGKERELVAAINATDGSTYADSVKGRFTISRDNAKNTVYLQMKSLKREDTSVYYCYFTGGPYDFTRWSEFDHWGQGTQVTVSS | low polyreactivity
9 | QVQHVESGGGLVQAGGSHRLSCAASGSTFGSNDMRWYRQSPGKERQLVAAIRGIVGSTYYADSVKGRFTISRDHAKNTVYLQMNSLKPEDTAVYYCNKAEVSTYYQSSSTYGGYDYWGQGTQVTVSS | low polyreactivity
10 | QVQHVESGGGLVQAGGSIRLSGAASGRIILGYDMGWYRQPPGKDRELVAAINSVASTNYADSVKGRFTISRDNAKNTVYLQMNSLKPEDTAVYYCAAVYFLVEADLPAYDYWGQGTQVTVSS | low polyreactivity
11 | QVQHVESGGGLVQAGGSLRISCAASGSILDGYAMGWYRQAPGKEREFVAAITWSGGRTYYADSVKGRFTISRDNAMNTVYLQMNSLKPEDTAVYYCIAVTGSWRYDFWGQGSQVTVSS | high polyreactivity
12 | QVQHVESGGGLVQAGGSLRISSAASGYIFDKYAMGRYRQAPGKERELVAAITYSGGSTYYADSVKGRFTISRDNAKNTVYLQMNSLIAEDTAVNYCAPEVRRSTLEFGYWRQGTQVTVSS | high polyreactivity
13 | QVQHVESGGGLVQAGGSLRLICAASGLTFPYYAMGWYRQDAGKVSELVAAITWSGGTTDYADSVKGRFTISRDNAKNTVYFKMITLKPEDTAVYFCAARVLWKGYYWGQGTQVTVSS | low polyreactivity
14 | QVQHVESGGGLVQAGGSLRLICAASGSTFGNYAMGWYRQAPGKERELVAAISTSGGSTYYADSVKGRFTISRDNAKNTVYLQMNSLKPEDTAVYYCANRLVRGRSRAVSDYYWGQGTQVTVSS | high polyreactivity
15 | QVQHVESGGGLVQAGGSLRLSCAASFYVYAMGWYRQAPGKERELVAAITYSGGGTYYADSVKGRFTISRDNAKKTVYLQMYSLKPEDTAVYYCNARATAYGWRGYAGFEFDYWGQGTQVTVSS | low polyreactivity
16 | QVQHVESGGGLVQAGGSLRLSCAASGFIFDCNTMGWYRQAPGKERELVATIDFSGTSTYYADSVKGRFTISRDNAKNTVYFQMNSLKPEDTAVYYCNAVRSGWGYFFCLNYWGQGTQVTVSS | low polyreactivity
17 | QVQHVESGGGLVQAGGSLRLSCAASGFIFLYYAMGWYRQAHGQERELVAAISRSGGRTYYADSVKGRFTISRDTAKNTVYLQMNSLKPEDTAVYYCAADRLGSISGYDYWGQGTQVTVSS | high polyreactivity
18 | QVQHVESGGGLVQAGGSLRLSCAASGFIFTANAMGWYRQAPGKERELVAGIRSGSSTYYADSVKGRFTISRDNAKNTVYLQLNSLKPEDTAVYYCNAEKFNFIYAYEYWGKGTQVTVSS | low polyreactivity
19 | QVQHVESGGGLVQAGGSLRLSCAASGFIFTPYAMGWYRQAPGKEREFVASITWSGGSTNYADSVKGRFTISRDNAKNTVYLQMNSLKPEDTAVYYCNADTWSPNDYWGLGTQVTVSS | low polyreactivity
20 | QVQHVESGGGLVQAGGSLRLSCAASGFIFWYYAMGLYRQAPGKERELVADISSGGSTNYADSVKGRFTISRDNAKNTVYLQMNSLKPDDTAVYYCAADTFRRDDYWGQGTQVTVSS | low polyreactivity
21 | QVQHVESGGGLVQAGGSLRLSCAASGFTFVYYVMGWYRQAPGKERELVAAINAGGGSTYYADSVKGRFTISRDNAKNTVYLQMNSLKPEDTAVYYCNARVRVRLGRNWSSYYYWGQGTQVTVSS | high polyreactivity
22 | QVQHVESGGGLVQAGGSLRLSCAASGFTFYGNSMGWYRPAPGKERELVAGISWRGGSTYYADSVKGRFTISRDNAKNTVYLQMNSLKPEDTAVYYCAAYLWTNYYLWEYDYWGQGTQVTVSS | high polyreactivity

Row | Sequence | polyreactivity (PSR sort gate)
23 | QVQHVESGGGLVQAGGSLRLSCAASGFTYVVYDMGWYRPAPGKERELVAVITNSGGSTYYADSEKGRFTISRDNAKNTVYLQMNSLKPEDTAVYYCNTENFYGSDIFDSWGQGTQVTVSS | low polyreactivity
24 | QVQHVESGGGLVQAGGSLRLSCAASGGTFGSNTMGWYRQARGKERELVAAITSGVSTYYADSVKGRFTISRDNAKNTVYLQMNSLKPEDTAVFYCAADTTQVQGVEGDYWGQGTQVTVSS | low polyreactivity
25 | QVQHVESGGGLVQAGGSLRLSCAASGIIFRENALGWDRQAPGKERELVAGISSGGNTNYADSGKGRFTISRDNAKNPVYLQMNSLNPEDTAVYYCNTDWYLPRYVLLGYFSGTEDYWGQGTQVTLSS | low polyreactivity
26 | QVQHVESGGGLVQAGGSLRLSCAASGIIFSYNAMGWYRQAPGKERELVAAISSGGRTYYADSVKGRFTISRDNAKNTVYLQMNSLKPEDTAVYYCATTSPHRLYGYYYDYWGQGSQVTVSS | high polyreactivity
27 | QVQHVESGGGLVQAGGSLRLSCAASGITFSFYAMGWYRQAPGKERELVAAINGRGGRTYYADSVKGRFTISRDNAKNTVYLQMNSLKPEDTAVYYCAAVVWSTDYDYWGQGTQVTVSS | low polyreactivity
28 | QVQHVESGGGLVQAGGSLRLSCAASGLIFYYYDMGWYRQPPGKERELVAAISYNGGTTYYSDSVKGRFTISRDNAKNTVYLQMNSLKPEDTAVYYCASEQLVSGYDYWGQGTQVTVSS | low polyreactivity
29 | QVQHVESGGGLVQAGGSLRLSCAASGLIYSYYTMGWYRQAPGKERDLVAAITGSGGTTYYADSVKGRFTISRDNAKNTVYIQMNSLKPEDTAVYYCATPPPEVWQRWYREYDYWGQGTQVTVSS | low polyreactivity
30 | QVQHVESGGGLVQAGGSLRLSCAASGLTFYDYAMGWYRQAPGKERELVADIDFNGGSTSYADSVKGRFTISRDNAKNTVYLQMNSLKPEDTAVYYCAARIHGSWSFDYWGQGTQVTVSS | low polyreactivity
31 | QVQHVESGGGLVQAGGSLRLSCAASGNIFYTNAMGWYRQATGKERELVAAISGSGGRTYYADSVKGRFTISRDNAKNTVYLQMNSLKPEDTAVYYCNAVRRDYYDRTYGYWGQGTQVTVSS | low polyreactivity
32 | QVQHVESGGGLVQAGGSLRLSCAASGNTFLRYAMGWYIKAPGKERELVAAISRSGGSTYYADSVKGRFTISRDTAKNTVYLQMNSLKPEDTAVYYCAARRSSQPDKGYYYWGQGTQVTVSS | high polyreactivity
33 | QVQHVESGGGLVQAGGSLRLSCAASGRIFALYAMGWYRQAPGKERELVAAITSGSTYYADSVKGRFTISRDNAKNTVYLQMNSLKPEDTAVYYCAADLSYWRGGHSRNYWGQGTQVTVSS | low polyreactivity
34 | QVQHVESGGGLVQAGGSLRLSCAASGRIFGYYTMGWYRQAPGKERELVATIDWSGDSTYYADSVKGRFTISRDNAKNTVYLQMNSLKPEDTAVYYCAKRYYLYHYDSWGQGTQVTVSS | low polyreactivity
35 | QVQHVESGGGLVQAGGSLRLSCAASGRIFHYYAMGWYRQAPGKERELVAAITFRGGNTYADSVKGRFTISRDNAKNTVYLQMNSLKPEDTAFYYCADSRLSGYYSRYGYWGQGTQVTVSS | high polyreactivity
36 | QVQHVESGGGLVQAGGSLRLSCAASGRIFHYYAMGWYRQAPGKERELVATISRRGGTTYYADSVKGRFTISRDNAKNTVYLQMNSLKPEDTAVYYCAAKYFGTRYDYWGQGTQVTVSS | high polyreactivity
37 | QVQHVESGGGLVQAGGSLRLSCAASGRIFVRNAMGWYIQAPGKERELVAAITSGASTYYADSVKGRFTISRDNAKYTVYFQMYSVKPEDTAVSYCAAQAVIASWWTVDYYYWGQGTQVTVSS | high polyreactivity
38 | QVQHVESGGGLVQAGGSLRLSCAASGRIFYFNAMGWSSQAPGKERELVAAISGSGGDTYYADSVKGRFTISRDNAKNTVYLQMNSLKPEDTAVYYCAAEVYPWGQGTQVTVAS | low polyreactivity
39 | QVQHVESGGGLVQAGGSLRLSCAASGRIFYGYAMGWYRQAPGKERELVAAISSSGGSTYYADSVKGRFTISRDIAKNTVYLQMNSLKPEDTAVYYCNAQRYRPGYWYDYWGQGTQVTVSS | high polyreactivity
40 | QVQHVESGGGLVQAGGSLRLSCAASGRIFYSNTMGWYRQAPGKERELVAAITWRGGRTHYADSVKGRFTISRDNAKNTVYLQMNSLKPEDTAVYYCAARYIPIQYPSYRTWGGYSWGQGTQVTVSS | high polyreactivity
41 | QVQHVESGGGLVQAGGSLRLSCAASGRILIRNAMGWYRQAPGKERELVAAINRGGGSTYYADSVKGRFTISRDNAKNTVYLQMNSLKPEDTAVYYCAADRKAGYSRVDGDYWGQGTQVTVSS | low polyreactivity
42 | QVQHVESGGGLVQAGGSLRLSCAASGRILVSYAMGWYRQAPGKERELVAAISRSGGSTYYADSVKGRFTISRDNAKNTVYLQMNCLKPEDTAVYYCATGLYIQSTYHRYERYNYWGQGTQVTVSS | high polyreactivity
43 | QVQHVESGGGLVQAGGSLRLSCAASGRIYAMGWYRQAPGKERELVARITKSGTSTYYADSVKGRFTISRDNAKNTVYLQMNSLKPEDTAVYYCNARYWGYWGDHYDYWGQGTQLTVSS | high polyreactivity
